From patent US20100196361A1, “Method of inhibition of vascular development using an antibody” (DYAX CORP., priority 2003, published 2010)

Legend:
[1] = biological target: Tie1 (Homo sapiens, UniProt P35590); test: Immunohistochemistry of matched tumor and normal tissue sections; assay type: binding; conditions: frozen sections
Protocol: To evaluate the binding of E3 to Tie1 in primary tumor and normal tissue the antibody was produced as an IgG and biotin labeled. The E3 antibody and two other anti Tie1 antibodies B2 and D11 were reformatted as full length IgG molecules. Nucleic acids encoding these IgGs were transiently transfected into HEK293T cells. Plasmid preparations for transient cell transfections were performed using the HP-[…]™ MIDI prep kit (Sigma, cat. no. NA0200). HEK293T cells (GenHunter Corp. cat. no. Q401) were seeded 24 hours before transfection; 6×10^6 cells were plated per 10-cm culture dish. Transfections were carried out using LIPOFECTAMINE™ 2000 reagent (Invitrogen, cat. no. 11668019) following the manufacturer's instructions. Five micrograms of plasmid DNA was used per 10-cm dish. Cells were cultured in DMEM (Invitrogen, cat. no. 31966021) supplemented with 10% “ultra-low IgG” fetal calf serum (Invitrogen, cat. no. 16250078), at 37° C., 5% CO2, in a water saturated atmosphere. Conditioned media were harvested 72 hours and 144 hours after transfection, pooled and sterile filtered.
The Tie1 antibodies were biotinylated using the EZ-link Sulfo-NHS-SS-Biotin (Pierce, Cat. 21331). For Tie1/Fc and Tie1-His, the reaction was performed for 2 hours on ice in 50 mM sodium carbonate buffer, pH 9.6, in the presence of a 5-fold molar excess of biotinylating agent. For the antibodies, the reaction was performed for 2 hours on ice in PBS, in the presence of a 15-fold molar excess of EZ-link Sulfo-NHS-SS-Biotin. The reaction was stopped by the addition of Tris-HCl, pH 7.5 (50 mM final concentration) followed by a 1-hour incubation on ice. Samples were then dialyzed against PBS.
Various normal and tumor tissue sections were stained with biotinylated antibodies. A mouse monoclonal anti-Tie1 antibody (7e8) (Alitalo laboratory, University of Helsinki) was used as a positive control. Sections without primary antibody served as negative control. All samples were fresh frozen tissues and staining was performed with the TSA-kit (Perkin-Elmer Life Sciences). After acetone fixation (10-20 min, −20° C.) the slides were treated with 0.73% H2O2 for 10 min to reduce endogenous peroxidase activity followed by blocking for 30 min with TNB buffer. Sections ([…] thick) were incubated with primary antibodies (10 μg/ml) overnight at 4° C. Sections with the mouse monoclonal anti-tie1 antibody (7e8) were treated with biotinylated anti-mouse antibodies (VectaStain) before the addition of streptavidin-HRP. Signal was amplified by using a TSA kit and the visualized by AEC (235 ml NaAc,15 ml AEC (stock solution: 1600 mg 3-amino-9-ethyl-carbazole and 480 ml N-dimethylformamide), 250 μl H2O2).

[2] = biological target: T1, human Tie1 Fc (Homo sapiens, UniProt P35590); test: BIAcore, Fab over Tie1/Fc coated on CM5 chip; assay type: binding; conditions: Fab analyte
T1 construct: selected against the Tie1 extracellular domain fused to human Fc or to a histidine purification tag
T1 sequence (P35590 22-759 limits assumed): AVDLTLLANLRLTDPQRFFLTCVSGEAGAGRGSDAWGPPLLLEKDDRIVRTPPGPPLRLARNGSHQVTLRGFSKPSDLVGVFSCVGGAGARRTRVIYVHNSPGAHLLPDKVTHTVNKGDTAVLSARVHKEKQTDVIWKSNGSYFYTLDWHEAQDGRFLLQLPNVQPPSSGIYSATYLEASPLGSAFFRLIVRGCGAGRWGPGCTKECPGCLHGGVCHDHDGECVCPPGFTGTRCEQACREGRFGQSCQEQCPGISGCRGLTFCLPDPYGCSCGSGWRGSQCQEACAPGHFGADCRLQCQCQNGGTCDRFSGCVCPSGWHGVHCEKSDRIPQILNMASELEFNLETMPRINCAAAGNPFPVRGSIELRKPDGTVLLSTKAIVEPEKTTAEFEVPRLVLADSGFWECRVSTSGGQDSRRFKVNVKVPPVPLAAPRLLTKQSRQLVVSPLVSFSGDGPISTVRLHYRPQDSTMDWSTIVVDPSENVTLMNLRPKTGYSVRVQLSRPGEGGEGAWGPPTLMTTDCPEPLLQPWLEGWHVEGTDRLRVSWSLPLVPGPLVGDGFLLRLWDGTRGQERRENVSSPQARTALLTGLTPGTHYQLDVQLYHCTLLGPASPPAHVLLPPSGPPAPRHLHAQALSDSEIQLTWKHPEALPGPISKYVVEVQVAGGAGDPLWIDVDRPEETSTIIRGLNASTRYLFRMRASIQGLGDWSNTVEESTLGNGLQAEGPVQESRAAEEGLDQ
Text: To evaluate if the binding behaviour had been affected in any way by the conversion of the somatic mutations back to germline residues, the parental and the germlined E3b antibodies were produced and tested in Biacore as Fab fragments. Here, by contrast to what was done for the IgGs (see Example 28), and in order to measure a monovalent interaction, the Fabs were run over the antigen directly coated onto the surface.
Recombinant human Tie1/Fc was coated on a CM5 chip. The surface of the chip was first activated with a 7-minute pulse of 0.05 M NHS/0.2 M EDC, then Tie1/Fc (2 μg/ml in 10 mM sodium acetate, pH 4.0) was run over the chip surface until 750 RUs were coated on the surface. All flow cells were subsequently deactivated with a 7-minute pulse of 1 M ethanolamine hydrochloride, pH 8.5. All further experiments were performed in HBS buffer.
The parental and the germlined E3b Fabs were prepared. A series of dilution (50, 25, 12.5, 6.25 and 3.125 nM) was prepared in HBS buffer. Samples were injected at 30 μl/min for 5.3 minutes using the KINJECT™ program. This was followed by a 10-minute dissociation phase, and the remaining Fab was stripped from the surface with a single 18-sec injection of 50 mM NaOH/1 M NaCl.
Sensorgrams were analyzed using the simultaneous ka/kd fitting program from the BIAEVALUATION™ software 3.1 assuming a 1:1 model.

Sequence of Tie1 (P35590 22-1138): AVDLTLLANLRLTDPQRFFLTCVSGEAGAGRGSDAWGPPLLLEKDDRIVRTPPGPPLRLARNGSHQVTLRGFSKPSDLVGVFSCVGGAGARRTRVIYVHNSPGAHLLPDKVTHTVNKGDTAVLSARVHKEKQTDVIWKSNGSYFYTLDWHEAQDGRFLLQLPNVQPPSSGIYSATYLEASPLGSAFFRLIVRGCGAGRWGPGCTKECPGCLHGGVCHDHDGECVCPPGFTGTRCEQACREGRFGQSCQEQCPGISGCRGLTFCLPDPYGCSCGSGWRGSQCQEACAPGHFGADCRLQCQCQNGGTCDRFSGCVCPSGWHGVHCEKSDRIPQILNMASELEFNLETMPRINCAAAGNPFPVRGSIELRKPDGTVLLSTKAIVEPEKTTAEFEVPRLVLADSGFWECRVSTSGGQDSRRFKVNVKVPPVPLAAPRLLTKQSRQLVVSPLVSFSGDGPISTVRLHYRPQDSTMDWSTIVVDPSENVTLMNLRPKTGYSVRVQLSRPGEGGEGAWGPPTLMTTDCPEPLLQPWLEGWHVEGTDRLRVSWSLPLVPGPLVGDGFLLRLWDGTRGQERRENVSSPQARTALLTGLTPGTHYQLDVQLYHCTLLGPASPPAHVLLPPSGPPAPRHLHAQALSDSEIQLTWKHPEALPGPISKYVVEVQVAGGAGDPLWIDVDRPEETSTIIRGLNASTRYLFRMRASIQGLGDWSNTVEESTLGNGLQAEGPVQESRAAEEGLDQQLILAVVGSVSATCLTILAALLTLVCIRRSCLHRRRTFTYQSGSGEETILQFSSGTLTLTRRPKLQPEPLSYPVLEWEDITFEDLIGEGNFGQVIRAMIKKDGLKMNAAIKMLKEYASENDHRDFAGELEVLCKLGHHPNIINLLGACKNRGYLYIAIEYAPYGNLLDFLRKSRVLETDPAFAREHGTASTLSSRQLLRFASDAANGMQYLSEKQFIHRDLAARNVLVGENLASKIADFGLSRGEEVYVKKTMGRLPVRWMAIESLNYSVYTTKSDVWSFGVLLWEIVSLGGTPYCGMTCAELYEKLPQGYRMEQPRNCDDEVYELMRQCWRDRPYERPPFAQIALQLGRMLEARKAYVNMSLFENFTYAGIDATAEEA

B1: E3: human anti-Tie1 antibody from phage Fab library, reformatted as IgG; HC variable SEQ ID NO:114, LC variable SEQ ID NO:116 (antibody, V domains shown)
VH: EVQLLESGGGLVQPGGSLRLSCAASGFTFSMYGMVWVRQAPGKGLEWVSVISPSGGNTGYADSVKGRFTISRDNSKNTLYLQVNSLRAEDTAVYYCARAPRGYSYGYYYWGQGTLVTVSSASTKGPSVFPLAPSSKSTSGG
VL: DIQMTQSPLSLSASVGDRVTITCRASQGIGHYLAWYQQKPGKVPKLLIYTASTLQSGVPSRFSGSGSGTDFTLTINSLQPEDVATYYCQQFNSYPHTFGQGTRLDIK
modifications: IgG constant regions; Synthetically generated peptide
B1 was tested, and the “staining of breast (mammary tissue)” value ([1]; 10 μg/ml) was “brightest staining in the veins and capillaries of the mammary tissue”, the “staining of breast carcinoma” value ([1]; 10 μg/ml) was “stained also other structures in addition to vessels” and the “staining of hypernephroma tissue” value ([1]; 10 μg/ml) was “clear staining”. The staining of kidney ([1]; 10 μg/ml) was “stained kidney tubules in addition to the vessels”, the “staining of lung carcinoma” value ([1]; 10 μg/ml) was “stained structures other than vessels” and the “staining of melanoma tissue” value ([1]; 10 μg/ml) was “also stained other surrounding structures”. The “staining of normal lung” value ([1]; 10 μg/ml) was “stained especially clearly the large veins in the lung”, the “staining of normal skin” value ([1]; 10 μg/ml) was “stained blood vessels very faintly” and the “tissue specificity of vessel staining in normal tissues” value ([1]; biotinylated antibody 10 μg/ml) was “stained vessels in the lung and kidney but not in the skin”.

B2: parental E3 Fab: soluble Fab fragment of the parental E3 anti-Tie1 antibody (antibody, V domains shown)
VH: EVQLLESGGGLVQPGGSLRLSCAASGFTFSMYGMVWVRQAPGKGLEWVSVISPSGGNTGYADSVKGRFTISRDNSKNTLYLQVNSLRAEDTAVYYCARAPRGYSYGYYYWGQGTLVTVSSASTKGPSVFPLAPSSKSTSGG
VL: DIQMTQSPLSLSASVGDRVTITCRASQGIGHYLAWYQQKPGKVPKLLIYTASTLQSGVPSRFSGSGSGTDFTLTINSLQPEDVATYYCQQFNSYPHTFGQGTRLDIK
B2 was tested, and the “koff” value ([2]; Human Tie1 Fc coated on CM5) was 0.00105 s⁻¹ and the “kon” value ([2]; Human Tie1 Fc coated on CM5, 750 RU) was 88100 M⁻¹ s⁻¹.
